Among the data in the RNAGym collection of RNA variant scans (doi:10.7554/elife.80360) are self-cleavage values, retold here.

The labels stand for the following.
B1: Hairpin Ribozyme (parent)
chain: GUCCUCUUUCACGUGCGCGUGAAAGAGAGAAGUGAACCAGAGAAACACACGUUGUGGUAUAUUACCUGGUA

The variants in the data set derive from B1. As to the kind of experiment: self-cleavage, relative activity (ratio to wild type); higher = more cleavage; co-transcriptional.
For U2C U53C, the self-cleavage worked out at 0.0859.

For the variant C18G U52C, the self-cleavage stood at 1.04.

Turning to C12U G15A, the self-cleavage was 0.687.

Take G21A A61U: the self-cleavage is 0.18.

As for A31C G56U, the self-cleavage was determined as 0.182.

Take A41U G42C: the self-cleavage turned out to be 0.464.

As to U63G A64C, the self-cleavage was determined as 0.191.

With U33C U55A, the self-cleavage worked out at 0.0653.

For G19U U33G, the self-cleavage was 0.117.

For the variant A49C U70C, the self-cleavage was 0.0597.

Regarding C18U A59C, the self-cleavage came out at 0.237.

For U7G A45G, the self-cleavage is 0.102.

As to A49C C66G, the self-cleavage was 0.301.

Regarding A49C C66U, the self-cleavage is 0.183.

For the variant C4A A61G, the self-cleavage amounted to 0.279.

As to A28C C46U, the self-cleavage worked out at 0.151.

In the case of C66G U70A, the self-cleavage was determined as 0.273.

As for C37A G51U, the self-cleavage stood at 0.563.

As for C4U G54C, the self-cleavage came out at 0.364.

As to C3U U67A, the self-cleavage came out at 0.0952.

Take G13C C50U: the self-cleavage was found to be 0.281.

For G15A C38G, the self-cleavage is 0.297.

Turning to G1C A30U, the self-cleavage came to 0.0862.

With A26C G40C, the self-cleavage came to 0.11.

U55C U67A: the self-cleavage is 0.177.

As to C38G G56A, the self-cleavage amounted to 0.134.

Consider U20A G40A, for which the self-cleavage was found to be 0.242.

With A28G A35G, the self-cleavage amounted to 0.864.

In the case of G1A G15U, the self-cleavage was 0.0969.

In the case of U55C G57A, the self-cleavage is 0.11.

On to C3A U7A, for which the self-cleavage came out at 0.822.

Turning to U8C G34C, the self-cleavage came to 1.16.

Take A23C U52A: the self-cleavage was 0.875.

With G1C U5G, the self-cleavage was 0.237.

For U8G C50G, the self-cleavage was 0.125.

Regarding C3G A61U, the self-cleavage was determined as 0.0942.

G56A G69A: the self-cleavage was 0.148.

In the case of G1A U70G, the self-cleavage was 0.0827.

Consider U20A U58A, for which the self-cleavage came to 0.709.

Consider G13U A23C, for which the self-cleavage came to 0.557.

Turning to G1U G21U, the self-cleavage came to 0.109.

In the case of U2C C48A, the self-cleavage was determined as 0.0257.

As to A71G, the self-cleavage was determined as 1.04.

As to G42U G57U, the self-cleavage was 0.187.

In the case of C46A G54U, the self-cleavage came to 0.307.

As to U9G A41G, the self-cleavage is 0.593.

Regarding A23C U62A, the self-cleavage worked out at 0.229.

G1U A43G: the self-cleavage stood at 0.0972.

As for C16U G25U, the self-cleavage was found to be 0.873.

With U7A A24G, the self-cleavage stood at 0.702.

As for G25A A36G, the self-cleavage came to 0.605.

Turning to U7C A64U, the self-cleavage came to 0.0591.

As to A22C U53G, the self-cleavage is 0.822.

As for U8C U62C, the self-cleavage was 0.201.

On to C4U A24G, for which the self-cleavage was 0.272.

G15U U53A: the self-cleavage came out at 1.16.

Take C4U C50U: the self-cleavage was determined as 0.213.

As to C3A C12A, the self-cleavage worked out at 0.603.

For the variant A31C G57C, the self-cleavage is 0.189.

A31C G57A: the self-cleavage worked out at 0.107.

With U9C C38U, the self-cleavage was 0.338.

Take C37G A47U: the self-cleavage was determined as 0.113.

In the case of C4U A45C, the self-cleavage turned out to be 0.122.

As to C12G A45C, the self-cleavage came out at 0.0684.

For the variant C18U G54A, the self-cleavage was 0.695.

U20A A23G: the self-cleavage was determined as 0.783.

For the variant U5C A36G, the self-cleavage is 0.502.

For the variant U9C G40C, the self-cleavage worked out at 0.136.

Consider U58A A59G, for which the self-cleavage worked out at 0.122.

U2C A36C: the self-cleavage was found to be 0.17.

As to G25C A49C, the self-cleavage came to 0.136.

As for A26G A47C, the self-cleavage worked out at 0.251.

For the variant A44C U62A, the self-cleavage stood at 0.156.

As to U5G U52G, the self-cleavage turned out to be 0.255.

As for C6G C65A, the self-cleavage turned out to be 0.527.

For A49C U58C, the self-cleavage came to 0.316.

Consider A49U A59U, for which the self-cleavage turned out to be 0.178.

In the case of G32C U33C, the self-cleavage was found to be 0.0618.

As to A26G G32C, the self-cleavage came to 0.144.

On to A11C U67A, for which the self-cleavage is 0.116.

As for G25U A26C, the self-cleavage was 0.21.

In the case of U62G A71C, the self-cleavage stood at 0.281.

On to C3G U58C, for which the self-cleavage turned out to be 0.311.

With A28C G32C, the self-cleavage turned out to be 0.121.

With C10A A24C, the self-cleavage is 0.598.

For U5C G42U, the self-cleavage was 0.164.

For A31U U62G, the self-cleavage worked out at 0.

In the case of U2G U55A, the self-cleavage is 0.195.

As to G21C G69C, the self-cleavage came out at 0.265.

In the case of U63G G69C, the self-cleavage was found to be 0.138.

For the variant A23C C37G, the self-cleavage is 0.159.

In the case of G1A G27U, the self-cleavage is 0.153.

On to G21U U55A, for which the self-cleavage was determined as 0.227.

Consider A43U A49C, for which the self-cleavage is 0.173.

For A28G U55C, the self-cleavage is 0.53.

Regarding G1U A30C, the self-cleavage was found to be 0.178.

Regarding G57C A59U, the self-cleavage was 0.159.

For C12A A23C, the self-cleavage was 0.762.

As for U9C C16U, the self-cleavage was determined as 1.02.

As to G21C U58C, the self-cleavage was determined as 0.77.

Take U20C A36G: the self-cleavage came out at 1.

U8C U70C: the self-cleavage came to 0.651.

Regarding U5G U58G, the self-cleavage was determined as 0.0427.

On to C12U A44G, for which the self-cleavage was found to be 0.201.

Consider C38U G68C, for which the self-cleavage was determined as 0.171.

On to A31C A36G, for which the self-cleavage was 0.124.

With U52G U63C, the self-cleavage was found to be 0.0944.

Take G40U G69U: the self-cleavage stood at 0.0875.

With A24U U70C, the self-cleavage stood at 0.743.

For the variant A64C A71G, the self-cleavage was found to be 0.266.

As for G29C A64C, the self-cleavage was 0.133.

Take C46U U60A: the self-cleavage was 0.16.

Take C4A U33G: the self-cleavage is 0.234.

For the variant A23C G57U, the self-cleavage worked out at 0.29.

For the variant C6G U20C, the self-cleavage was found to be 0.368.

Regarding C10G G68U, the self-cleavage is 0.148.

As for U7G G27C, the self-cleavage came out at 0.152.

With A11U A22C, the self-cleavage turned out to be 0.363.

G27A A43C: the self-cleavage is 0.0674.

As for G29C C37U, the self-cleavage is 0.121.

With C12U U67C, the self-cleavage came to 0.237.

For G27A G40U, the self-cleavage stood at 0.179.

With G40A U58G, the self-cleavage came to 0.19.

On to A45G U63G, for which the self-cleavage came out at 0.226.

Turning to G19C U33G, the self-cleavage was 0.0947.

On to C10A U52G, for which the self-cleavage was determined as 0.731.

Consider A31G A45C, for which the self-cleavage was 0.241.

Regarding U5A C12G, the self-cleavage is 0.266.

Consider A24C C37A, for which the self-cleavage came out at 0.352.

With U8C C18A, the self-cleavage is 0.787.

Turning to C38G C50U, the self-cleavage amounted to 0.0995.

Regarding G21A C66U, the self-cleavage was 0.447.

For the variant C12G G68A, the self-cleavage came to 0.233.

Turning to U9G C65U, the self-cleavage turned out to be 0.122.

As to G29C G56C, the self-cleavage stood at 0.0545.

Turning to G19U A47U, the self-cleavage is 0.211.

With A43C U60G, the self-cleavage worked out at 0.0932.

As for G34C U67G, the self-cleavage was determined as 0.517.

With A41G U52G, the self-cleavage was found to be 1.15.

Consider G56A C66A, for which the self-cleavage came to 0.0948.

As to C3G G34C, the self-cleavage was found to be 0.911.

Take U14G A64C: the self-cleavage came out at 0.27.

In the case of G1C G54U, the self-cleavage is 0.274.

On to G40C C50G, for which the self-cleavage worked out at 0.12.

As for C18U C66G, the self-cleavage is 0.202.

In the case of C10U U53A, the self-cleavage was 0.733.

On to A43G G56C, for which the self-cleavage was found to be 0.0421.

With A11C C12G, the self-cleavage stood at 0.903.

As to G1A G25U, the self-cleavage turned out to be 0.102.

Regarding C6A A26C, the self-cleavage stood at 0.418.

As for U14C G51U, the self-cleavage is 1.07.

Regarding C4A U52G, the self-cleavage is 0.22.

Regarding A39G U53A, the self-cleavage was determined as 0.295.

For the variant A43U A61C, the self-cleavage is 0.123.

Turning to A47G A61G, the self-cleavage was determined as 0.219.

With U9A G32U, the self-cleavage came out at 0.135.

Regarding C6G C12U, the self-cleavage was determined as 0.332.

For A26U G42U, the self-cleavage was 0.173.

Turning to G34A A45C, the self-cleavage was determined as 0.202.

Regarding U20C U53A, the self-cleavage amounted to 0.861.

A47U A71G: the self-cleavage was determined as 0.191.

Turning to C66A G69U, the self-cleavage was found to be 0.156.

As for U8C C46G, the self-cleavage turned out to be 0.188.

C50G A61U: the self-cleavage is 0.248.

Take U14G G25U: the self-cleavage was 0.492.

As to A30U G56U, the self-cleavage is 0.149.

In the case of A24C A26C, the self-cleavage turned out to be 0.338.
